Measurements taken from article PMC6478803.

Molecular target: FleQ (Pseudomonas syringae pv. tomato DC3000) (UniProt Q884Y2)
Experiment: EMSA
Conditions: STAD: 25 mM Tris-acetate pH 8.0, 8 mM Mg-acetate, 10 mM KCl, 3.5% PEG-8000, 1 mM DTT, 10 ug/ml poly(dI-dC), 200 ug/ml BSA; 20 nM probe (Results: 1 nM); 30 min …

In the case of “GTTCGATTAATCCAGTGAGCCTTTCGGTGCAGTTGGTCTGCGCCAACGCCACTGTCGGCGCGCCGCTGAATCTGGGTGACCTCAAGGCCGGTGAACGCTATAGCATCTTGCTGGTGCCGTCCGCCACAGGCCCGCGCCTGTTGTCGGCCACGGACACACTGTCCAACTGATCGGGTTCTGTCGTCGTTATGGTATTCGCCTCGCTTGAGTTTCTGATGGTGTTCCTGCCGGCTTTTTTGCTGGCCTATGCCGCAAGCCCGGCGGCGTGGCGCAACGTCGTTCTGTTGATCGGCAGTTGG (double strand) [wssH (wssH1)]”, the binding is reported as “no binding”.
